Measurements published in the supplement of paper PMC5949888.

System: Saccharomyces cerevisiae PS128 hsf1 delta, HSF1(1-493) fusion
Test: growth estimate (transactivation domain function in HSF1 fusion, heat-shock survival) (a.u. (slope of normalised read count over time)); higher = stronger growth at 37°C, i.e. more transactivation activity
Details: library: design library
Outline: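 Designed transactivation-domain oligos were fused to truncated yeast HSF1 (amino acids 1–493) and expressed in an hsf1-deleted yeast strain. Cells were replica-plated onto –trp 5-FOA plates and incubated at 30°C or 37°C for 0, 2, 4, 6 and 8 days. Inserts were PCR-amplified and Illumina MiSeq-sequenced as six barcoded replicates from one experiment. Growth estimate is the slope of a robust linear fit over time of read counts normalised to sample totals and starting count.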

| Sequence | growth estimate |
| --- | --- |
| EDDDEPSLWDSML | 0.0815 |
| MLSSHGFSRDTSALLDLFSP | < -0.25 |
| PFPDTQDDFLKWWRSEEGQ | 0.109 |
| RDDDEFSLWDSML | 0.648 |
| DADESWDYIFETTE | -0.164 |
| LFDYRFLFGNDFA | -0.216 |
| EDLYSALWSDVY | 0.125 |
| LFDYAFLFGNDFA | 2.15 |
| MLSSHGFSVDTSALPDLFSP | -0.23 |
| EFNDLLDLDAILSN | 0.353 |
| LFDKDFLFGNDFA | -0.177 |
| TMDDVYNRLFDD | -0.242 |
| DLAESWDYIFETTE | 0.371 |
| PFPDTQGDFLKWWRSEEAQ | -0.248 |
| MLSSHGFSVDASALLDLFSP | 0.0915 |
| QQNGGIAQLWDFN | -0.189 |
| DELSAIIELLEKDG | < -0.25 |
| MLSGHGFSVDTSALLDLFSP | -0.0767 |
| TMDAVYNYLFDD | 0.158 |
| PEFAGIELQELQELQALLQQ | -0.244 |
| DFDLDMLGDFDLDMLP | 22.2 |
| AFPDTQDDFLKWWRSEEAQ | -0.0486 |
| PFPDTQDDFLKWWRSPEAQ | -0.176 |
| KDLYSILWSDVY | -0.212 |

| Sequence | growth estimate |
| --- | --- |
| VADDIWEELASEDL | < -0.25 |
| PEFPGIELQELKELQALLQQ | < -0.25 |
| DFDLDMLGDGDLDMLG | -0.147 |
| VADDIWEEALSEDL | -0.233 |
| LFDYDFLKGNDFA | -0.139 |
| LFRYDFLFGNDFA | -0.0535 |
| PFGDTQDDFLKWWRSEEAQ | 0.304 |
| DLDESWDYIAETTE | -0.174 |
| PEFRGIELQELQELQALLQQ | -0.124 |
| VADDIWEELKSEDL | -0.188 |
| EFNDLLDLDFIKSN | -0.165 |
| EFNDLLDLKFILSN | -0.169 |
| LFDYDFLFGGDFA | 5.98 |
| PEFPGIELQELGELQALLQQ | -0.0807 |
| TMDDVYNYLFDA | 0.681 |
| KLSSHGFSVDTSALLDLFSP | -0.241 |
| TMDDVGNYLFDD | < -0.25 |
| MLSSHGFSGDTSALLDLFSP | -0.115 |
| PEFPGIELKELQELQALLQQ | -0.217 |
| PFPDTQDDFLKKWRSEEAQ | -0.167 |
| ALDESWDYIFETTE | 0.813 |
| VADDIWPELLSEDL | 0.612 |
| QQNGEIRQLWDFN | -0.0449 |
| EFNDLLDRDFILSN | -0.0427 |

| Sequence | growth estimate |
| --- | --- |
| DELSWIIELLEADG | 1.64 |
| MLSSHGFSVPTSALLDLFSP | -0.204 |
| KMDDVYNYLFDD | -0.148 |
| DFDLDMLGDFDRDMLG | 0.584 |
| PEFPGIELRELQELQALLQQ | 0.0112 |
| EDLYSIAWSDVY | < -0.25 |
| EDDDEFSLWDRML | -0.15 |
| EFNDLLDLDPILSN | -0.247 |
| DKLSWIIELLEKDG | < -0.25 |
| DFDLDMGGDFDLDMLG | 8.13 |
| PFPDTQDDFLRWWRSEEAQ | -0.0276 |
| MLSSHGFSVDTKALLDLFSP | -0.145 |
| DLDESWDYIFETPE | 0.951 |
| LFPYDFLFGNDFA | 1.32 |
| DLDESWDGIFETTE | 0.5 |
| DFDLDMLGDFDLDMLG | 7.72 |
| DELSWIIELLEKDK | 0.564 |
| VADDIPEELLSEDL | -0.228 |
| EFNDLLDLDFILSN | 1.51 |
| DEASWIIELLEKDG | -0.123 |
| TMDDGYNYLFDD | < -0.25 |
| EPNDLLDLDFILSN | 0.229 |
| EFNDLLALDFILSN | -0.112 |
| VADDRWEELLSEDL | < -0.25 |

| Sequence | growth estimate |
| --- | --- |
| DELSWIIKLLEKDG | -0.233 |
| LFDYDFLFANDFA | 2.92 |
| EFNDLLDLDFGLSN | 4.29 |
| PFPDTQDDFLPWWRSEEAQ | -0.145 |
| PEFPGIELQERQELQALLQQ | -0.248 |
| VADDIWEERLSEDL | < -0.25 |
| EDLYPILWSDVY | < -0.25 |
| LFDGDFLFGNDFA | 1.7 |
| EDLYSPLWSDVY | < -0.25 |
| VRDDIWEELLSEDL | 0.609 |
| ADLYSILWSDVY | -0.203 |
| DFDLRMLGDFDLDMLG | 6.25 |
| VADDIWEEKLSEDL | < -0.25 |
| EDLYAILWSDVY | -0.11 |
| MLSSHGFSVDTSALLDLRSP | < -0.25 |
| VADDIWEKLLSEDL | 2.03 |
| VKDDIWEELLSEDL | -0.23 |
| PEFPGIELQELQELQALLKQ | 0.0452 |
| PEFPGIELQELPELQALLQQ | -0.22 |
| ADDDEFSLWDSML | 1.96 |
| EFNDLLDLDFILRN | 5.09 |
| PEFPGIELQELQELGALLQQ | -0.221 |
| MLSSHGFSVDTSALLDKFSP | -0.227 |
| QQNGEGAQLWDFN | < -0.25 |

| Sequence | growth estimate |
| --- | --- |
| EDLPSILWSDVY | < -0.25 |
| GLSSHGFSVDTSALLDLFSP | 0.18 |
| DLDESWDYIFETTA | 0.992 |
| PEFPAIELQELQELQALLQQ | -0.181 |
| QQNGEIAPLWDFN | < -0.25 |
| PRFPGIELQELQELQALLQQ | < -0.25 |
| PEFPGIELQELQELQALLQA | -0.246 |
| MKSSHGFSVDTSALLDLFSP | -0.215 |
| EDLYSILWSDVA | 0.126 |
| VADDIWEELLSKDL | 2.92 |
| EDLYSILWPDVY | 1.01 |
| TMDDVYNKLFDD | < -0.25 |
| LFDYDFLFPNDFA | 4.58 |
| QQNGEIAQLWDFP | -0.243 |
| EDDDEFSLWDSMG | -0.226 |
| EDDDEFSKWDSML | -0.228 |
| EFNDLLDLDFILSA | -0.12 |
| DFKLDMLGDFDLDMLG | 5.13 |
| PPFPGIELQELQELQALLQQ | -0.187 |
| EDKDEFSLWDSML | -0.0707 |
| MLSSHGFSVDTSALLRLFSP | -0.193 |
| DFRLDMLGDFDLDMLG | 10.1 |
| DFDLDMLGDFPLDMLG | 1.65 |
| TMPDVYNYLFDD | -0.0795 |

| Sequence | growth estimate |
| --- | --- |
| EFADLLDLDFILSN | 0.75 |
| EDLASILWSDVY | -0.161 |
| DELSWIIEALEKDG | 0.0037 |
| DFDLDMLGAFDLDMLG | 5.97 |
| DLDESWDYIFETTK | -0.0269 |
| DELSWIIELLPKDG | -0.225 |
| DFDKDMLGDFDLDMLG | 0.964 |
| TMDDVYNYLFDP | 1.58 |
| MLSSAGFSVDTSALLDLFSP | -0.0464 |
| PFPDTQDDFLKWRRSEEAQ | -0.221 |
| EDLYSILWSDKY | -0.125 |
| MLSAHGFSVDTSALLDLFSP | -0.231 |
| VADDIWEELLSEDP | 0.229 |
| VADDIWEELRSEDL | -0.205 |
| PFPDAQDDFLKWWRSEEAQ | -0.158 |
| DLDESWDYIFKTTE | 0.154 |
| EDADEFSLWDSML | 0.354 |
| LFDYDFPFGNDFA | 0.577 |
| DELSWIIELLRKDG | < -0.25 |
| DFALDMLGDFDLDMLG | 3.21 |
| PFPDTQDDFLKGWRSEEAQ | -0.242 |
| LRDYDFLFGNDFA | -0.135 |
| MLSSHGFSVDTSAPLDLFSP | -0.15 |
| DFDLDMLGDFDLGMLG | 0.517 |

| Sequence | growth estimate |
| --- | --- |
| EDLYSILWSDRY | -0.0848 |
| EDLYSILWSDAY | 0.452 |
| PFPDTPDDFLKWWRSEEAQ | 0.819 |
| PEFPGIELQELQELKALLQQ | -0.22 |
| EDDDEFSLKDSML | < -0.25 |
| MLSSHGFSVDTSAKLDLFSP | -0.237 |
| QQNGEIAQLADFN | -0.24 |
| DFDPDMLGDFDLDMLG | 7.23 |
| EDDDPFSLWDSML | 2.41 |
| VADGIWEELLSEDL | -0.0444 |
| EDDREFSLWDSML | -0.175 |
| PFPATQDDFLKWWRSEEAQ | < -0.25 |
| PFPDTQRDFLKWWRSEEAQ | -0.245 |
| LFDYDFLFGPDFA | 10.1 |
| MLSSHGFSVDTSALLDLASP | -0.145 |
| EDGYSILWSDVY | -0.236 |
| MLSSHGRSVDTSALLDLFSP | -0.248 |
| PEFPGIELQELQELQALKQQ | -0.232 |
| PFPDTQDDFLKWWRSEEAQ | -0.149 |
| DFDLDMLGDFDLDGLG | 2.79 |
| KLDESWDYIFETTE | -0.0907 |
| DELSWIIELLEGDG | 2.77 |
| EDLYGILWSDVY | 0.0695 |
| DELSWIIELLEPDG | 7.58 |

| Sequence | growth estimate |
| --- | --- |
| VGDDIWEELLSEDL | 1.59 |
| EDDDEFSLGDSML | < -0.25 |
| DFDLDMLGDKDLDMLG | -0.188 |
| DFDLDMLGDFDLDMAG | 30.2 |
| DFDLDMLGGFDLDMLG | 2.09 |
| VADDIWEELLSEDA | -0.0522 |
| PEFPGIELQELQELQRLLQQ | -0.177 |
| DLDRSWDYIFETTE | -0.214 |
| DELSWIIELLEKDG | 1.7 |
| EFNDLADLDFILSN | 0.121 |
| DELSWIKELLEKDG | 0.278 |
| DFDLDMLGDFDLAMLG | -0.0527 |
| KADDIWEELLSEDL | 0.514 |
| KDDDEFSLWDSML | 0.429 |
| PFRDTQDDFLKWWRSEEAQ | -0.0923 |
| DFDLAMLGDFDLDMLG | 9.96 |
| EGDDEFSLWDSML | 0.054 |
| QQNGEIAQLWKFN | < -0.25 |
| DFDLDMAGDFDLDMLG | 11.3 |
| LFDYDFLFGNDPA | 0.915 |
| MLSSHPFSVDTSALLDLFSP | -0.195 |
